In patent publication US20250101133A1 (CENTRE NATIONAL DE LA RECHERCHE SCIENTIFIQUE, published 2025):

T1: recombinant human NEDP1 protein (human, UniProt Q96LD8 1-212)
T1 construct: also called deNEDDylating enzyme NEDP1; NEDP1 enzyme
T1 sequence (looked up): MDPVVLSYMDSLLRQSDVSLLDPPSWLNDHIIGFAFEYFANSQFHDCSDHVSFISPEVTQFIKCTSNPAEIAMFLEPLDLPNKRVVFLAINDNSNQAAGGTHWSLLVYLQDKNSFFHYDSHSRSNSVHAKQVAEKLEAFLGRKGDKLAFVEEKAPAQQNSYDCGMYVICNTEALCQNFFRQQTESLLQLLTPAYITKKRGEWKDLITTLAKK

T2: endogenous NEDP1 in U2OS cell extracts (human, UniProt Q96LD8 1-212)
T2 construct: Untagged native protein, co-immunoprecipitated from cell lysate
T2 sequence (looked up): T1 sequence (looked up)

B1: AbR2DP47, purified His6-tagged nanobody (VHH)
VHH: QVQLQESGGGLVEPGGSLRLSCAASGSISSINVMAWYRQAPGKQRESVAAISSFGITTYSETVKGRFTASRDNAKNTMYLQMNNLKPEDTAVYYCKGPNTDWGQGTQVTVSS
notes: Llama VHH, recloned into pHEN6 and purified from E. coli periplasm as a His6-tagged protein; also called Nb10; Nanobody 10; not shown: His6 tag from vector pHEN6
B2: AbR2DP35, purified His6-tagged nanobody (VHH)
VHH: QVQLQESGGGLVQPGGSLTLSCAASGVMFSTGVMGWYRQAPGKQREAVAAITSGGLTTYKDSVKGRFAISRDNTKSTGYLQMNRLRPEDTAVYYCNVRGYWGQGTQVTVSS
notes: Llama VHH, purified as a His6-tagged protein; also called Nb7; Nanobody 7; not shown: His6 tag from vector pHEN6
B3: AbR2DP46, purified His6-tagged nanobody (VHH)
VHH: QVQLQESGGGLVQAGGSLRLSCAASGSPFSIGTMAWYRQAPGNQRASVAAITRGGATTYANSVKGRFTVSRDNAKNTVYLQMNSLKPEDTAAYYCSVWAGDRAYWGQGTQVTVSS
notes: Llama VHH, recloned into pHEN6 and purified from E. coli periplasm as a His6-tagged protein; also called Nb9; Nanobody 9; not shown: His6 tag from vector pHEN6
B4: Nb9-Flag (AbR2DP46 with Flag tag, stably expressed in U2OS cells) (VHH)
VHH: B3 VHH
notes: Expressed inside U2OS cells from a pcDNA3 construct; also called Nanobody 9-Flag; AbR2DP46-Flag; not shown: Flag tag
B5: AbR2DP12, purified His6-tagged nanobody (VHH)
VHH: QVQLQESGGGLVQAGGSLRLSCAASGSTSSFNVMAWYHQAPGKQRESVASITSGGITVYRDSVKGRFAISSDNAKNTVFLQMNSLKPEDTGVYYCGGVVDGRVYRGQGTQVTVSS
notes: Llama VHH, recloned into pHEN6 and purified from E. coli periplasm as a His6-tagged protein; also called Nb2; Nanobody 2; not shown: His6 tag from vector pHEN6
B6: Nb2-Flag (AbR2DP12 with Flag tag, stably expressed in U2OS cells) (VHH)
VHH: B5 VHH
notes: Expressed inside U2OS cells from a pcDNA3 construct; also called Nanobody 2-Flag; AbR2DP12-Flag; not shown: Flag tag

Columns and labels:
[1] = molecular target: T1, recombinant human NEDP1 protein; assay: SPR and ELISA
Procedure: (§1) FIGS. 1A-1C: FIG. 1A Table showing the different Nanobodies isolated and their binding specificity towards the immunogen human NEDP1 and ULP-3, the C. elegans homologue of NEDP1 (−poor/no binding, + indicates binding affinity/specificity). FIG. 1B ELISA test, showing the binding of indicated Nanobodies (300 ng) against increasing amounts of coated recombinant human NEDP1. FIG. 1C Table showing the SPR (Surface Plasmon Resonance) analysis and binding affinities for indicated Nanobodies against human NEDP1.
(§2) Nbs affinities for NEDP1 were determined on a Biacore 2000 apparatus (Biacore AB, Uppsala, Sweden). Nanobodies (355 nM) were immobilized on anti-His6 antibody covalently immobilized on a carboxymethyl dextran sensorchip (CM5 Biacore AB) using the amine coupling method according to the manufacturer's instructions. The immobilization level was 500 resonance units (RU). Different concentrations of NEDP1 ranging from 0.75 to 200 nM in HEPES-buffered saline (0.01 M HEPES, pH 7.4, 0.15 M NaCl, 3 mM EDTA, 0.005% surfactant P20) were injected and exposed to the Nb. All sensorgrams were fitted by subtracting the signal from the reference flow cell and were treated using BIA evaluation version 3.2 software (Biacore AB).

[2] = molecular target: T1, recombinant human NEDP1 protein; assay: SPR
Procedure: as §1, §2

[3] = molecular target: T2, endogenous NEDP1 in U2OS cell extracts; assay: anti-Flag immunoprecipitation from U2OS cell extracts, western blot with anti-NEDP1
Procedure: FIGS. 4A-4B: FIG. 4A Extracts from empty pcDNA3 vector (vect.) or stably expressing Nanobody 2/Nanobody 9-Flag (AbR2DP12/AbR2DP46) U2OS cells were used for anti-Flag immunoprecipitations. Total cell extracts (input) and eluates were used for western blot analysis with the indicated antibodies. FIG. 4B U2OS cells described above were lysed in 2×SDS buffer and extracts were analysed by western blotting with the indicated antibodies.
U2OS cells either with empty pcDNA3 vector or stably expressing Nb2/Nb9-Flag constructs were lysed in 50 mM Tris-HCl, pH 7.4, 100 mM KCl, 1% NP-40, 2 mM EDTA, protease inhibitors (complete EDTA-free, Roche) for 15 min on ice. After centrifugation at 13000 rpm for 15 min at 4° C. extracts were used for immunoprecipitations overnight at 4° C. with 20 μl of pre-washed Flag beads. Next day beads were washed 3× with 500 μl of lysis buffer, resuspended in 50 μl of 2×SDS Laemmli buffer and boiled for 5 min. Eluates were analysed by western blotting.

Row | Binder | binding result [1] | binding result [3] | also measured
1 | B1 | binds |  | 
2 | B2 |  |  | binding result [2]: binds
3 | B3 | binds |  | 
4 | B4 |  | binds | 
5 | B5 | binds |  | 
6 | B6 |  | binds | 
